These results are taken from US10226417B2, “Drug delivery systems and applications” (priority 2011, dated 2019).

Values after ≈ are worked out from the molar mass of the structure shown. Read-outs that look alike come from different tables or passages of the source.

The conditions of data set [1]: cited from earlier work.
The conditions of data set [2]: cited from earlier work. The source holds these as a separate data set.
Data set [3] is described as follows: Circular dichroism analysis of released protein. The class given is physicochemical. The settings on record: protein released from O-LA-SG into PBS, sample at day 40. The protocol:
At day 40 a sample of the PBS solution was tested be circular dichroism CD analysis to monitor for any changes in protein structure.

Data set [4] can be described thus: Isoelectric focusing (IEF) of ovalbumin during processing. It counts as physicochemical. The protocol: Samples of O-LA were prepared as in Example 5. Samples at each step of the process were collected and analyzed by Isoelectric focusing (IEF) which measures the isoelectric point (pI) of the protein. A shift in pI of more than 0.2 is indicative of a single deamidation reaction. All samples had pI values that indicated no deamidation had occurred. The same samples were analyzed by ELISA. The ELISA tests indicated no denaturation of the epitope had occurred.

[5] abbreviates: 1-octanol/water (pH 7.4; buffer solution).

Consider `CCCCCCCCCCCC(=O)O` [dodecanoic], for which the Methyl ester solubility in data set [1] (value is for the methyl ester of the acid named in the row) was 4.8 µg/mL. The “Solubility in water at 20° C.” value in data set [1] was 55 µg/mL (≈ 275 µM). Further, the “log P” value in data set [2] (setting [5]) is listed as 4.77.

Consider `CCCCCCCCCCCCCCCCCC(=O)OC` [methyl stearate], for which the “log P” value in data set [2] (setting [5]) is listed as 8.43.

`CCCCCCCCCC(=O)O` [decanoic]: the log partition coefficient (log P) in data set [2] (pH 7.4) is listed as 3.75.

With `CCCCCCCCCCCCCC(=O)O` [tetradecanoic], in data set [1], the “Solubility in water at 20° C.” value is 20 µg/mL (≈ 87.6 µM).

For `CCCCCCCCCCCCCCCC(=O)OC` [methyl palmitate], in data set [2] (setting [5]), the log partition coefficient (log P) was 7.41.

B1: ovalbumin: protein albumin used to model a water soluble therapeutic agent protein (protein, UniProt P01012 2-386, looked up)
Ovalbumin: GSIGAASMEFCFDVFKELKVHHANENIFYCPIAIMSALAMVYLGAKDSTRTQINKVVRFDKLPGFGDSIEAQCGTSVNVHSSLRDILNQITKPNDVYSFSLASRLYAEERYPILPEYLQCVKELYRGGLEPINFQTAADQARELINSWVESQTNGIIRNVLQPSSVDSQTAMVLVNAIVFKGLWEKAFKDEDTQAMPFRVTEQESKPVQMMYQIGLFRVASMASEKMKILELPFASGTMSMLVLLPDEVSGLEQLESIINFEKLTEWTSSNVMEERKIKVYLPRMKMEEKYNLTSVLMAMGITDVFSSSANLSGISSAESLKISQAVHAAHAEINEAGREVVGSAEAGVDAASVSEEFRADHPFLFCIKHIATNAVLFFGRCVSP
Consider B1, for which, in data set [3], the “change in protein structure by circular dichroism” value is reported as “no wavelength shift”.

B2: Albumin powder: ovalbumin powder, process sample before grinding (protein, UniProt P01012 2-386, looked up)
Ovalbumin: B1 Ovalbumin
modifications: powder
notes: ovalbumin powder, process sample before grinding
For the molecule B2, in data set [4] (Sample 1), the “IEF data Ovalbumin A1 %” value came out at 80.9%, the “IEF data Ovalbumin A1 pI” value came out at 5.10, the “IEF data Ovalbumin A2 + A3 %” value is recorded as 19.1% and the “IEF data Ovalbumin A2 + A3 pI” value is reported as 5.14. Further, in data set [4] (Sample 2), the “IEF data Ovalbumin A1 %” value is reported as 82.2%, the “IEF data Ovalbumin A1 pI” value is given as 5.09, the “IEF data Ovalbumin A2 + A3 %” value was determined as 17.8% and the “IEF data Ovalbumin A2 + A3 pI” value is 5.14.

B3: Ground Albumin powder: ovalbumin ground to a fine powder, process sample (protein, UniProt P01012 2-386, looked up)
Ovalbumin: B1 Ovalbumin
modifications: ground powder
notes: ovalbumin ground to a fine powder, process sample
On to B3, for which, in data set [4] (Sample 1), the “IEF data Ovalbumin A1 %” value is recorded as 81.7%, the “IEF data Ovalbumin A1 pI” value is given as 5.10, the “IEF data Ovalbumin A2 + A3 %” value is listed as 18.3% and the “IEF data Ovalbumin A2 + A3 pI” value is 5.15. For the same molecule, in data set [4] (Sample 2), the “IEF data Ovalbumin A1 %” value is recorded as 81.2%, the “IEF data Ovalbumin A1 pI” value is reported as 5.11, the “IEF data Ovalbumin A2 + A3 %” value was determined as 18.8% and the “IEF data Ovalbumin A2 + A3 pI” value was determined as 5.15.
